Results taken from paper PMC8616027.

Tests used:
[1] = tested on: HU (HU-1/HU-2, hupA + hupB co-expressed) (Escherichia coli); experiment: EMSA; conditions: 10 min at 23 C, then 0.8% agarose gel electrophoresis, bound [3H]HU counted in gel slices; binding buffer composition, salt and pH not in the material …; scale: HU dimers bound per plasmid at saturation
[2] = tested on: HU (HU-1/HU-2, hupA + hupB co-expressed) (Escherichia coli); experiment: competition; conditions: 10 min at 23 C, then 0.8% agarose gel electrophoresis, bound [3H]HU counted in gel slices; binding buffer composition, salt and pH not in the material …

Substance | binding signal [1] | binding signal (fold affinity over linear DNA) [2] | binding signal (fold affinity over relaxed DNA) [2] | binding signal (fold affinity over relaxed pRLM4) [2]
linear pRLM4 | 1000 | – | – | –
negatively supercoiled pRLM4 (sigma -0.06) | 1000 | 20 | > 10 | 2
